Sequences and labels used below:
T1: CLL1 (UniProt Q5QGZ9 1-265, limits assumed)
T1 sequence (looked up): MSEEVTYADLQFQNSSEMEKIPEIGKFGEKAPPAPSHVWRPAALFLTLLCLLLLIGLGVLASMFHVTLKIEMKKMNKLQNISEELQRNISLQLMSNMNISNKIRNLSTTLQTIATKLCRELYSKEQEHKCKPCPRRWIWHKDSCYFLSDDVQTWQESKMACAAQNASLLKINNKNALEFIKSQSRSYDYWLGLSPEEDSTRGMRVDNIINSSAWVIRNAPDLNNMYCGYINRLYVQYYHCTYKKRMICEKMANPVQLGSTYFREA

T2: anti-GCN4 (52SR4 scFv) sCAR with IgG4m hinge
T2 construct: disulfide dimer by western blot; also called short-dimeric sCAR; IgG4m sCAR
T2 chain: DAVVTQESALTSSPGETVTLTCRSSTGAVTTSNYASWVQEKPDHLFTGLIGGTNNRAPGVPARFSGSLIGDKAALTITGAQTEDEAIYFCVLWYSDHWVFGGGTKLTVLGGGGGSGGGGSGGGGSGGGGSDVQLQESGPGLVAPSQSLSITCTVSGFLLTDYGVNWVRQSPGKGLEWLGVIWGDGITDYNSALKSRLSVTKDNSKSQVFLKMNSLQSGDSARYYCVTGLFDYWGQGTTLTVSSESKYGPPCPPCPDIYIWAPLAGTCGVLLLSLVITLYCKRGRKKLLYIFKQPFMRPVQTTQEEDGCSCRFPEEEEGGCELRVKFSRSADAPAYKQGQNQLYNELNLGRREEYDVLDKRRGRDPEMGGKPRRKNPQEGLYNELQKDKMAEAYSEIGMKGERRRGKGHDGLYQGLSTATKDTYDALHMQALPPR

B1: anti-CD19 (FMC63) Fab CTBV switch (Fab)
light: DIQMTQTTSSLSASLGDRVTISCRASQDISKYLNWYQQKPDGTVKLLIYHTSRLHSGVPSRFSGSGSGTDYSLTISNLEQEDIATYFCQQGNTLPYTFGGGTKLEIKRTVAAPSVFIFPPSDEQLKSGTASVVCLLNNFYPREAKVQWKVDNALQSGNSQESVTEQDSKDSTYSLSSTLTLSKADYEKHKVYACEVTHQGLSSPVTKSFNRGECGGGGSNYHLENEVARLKKL
heavy: EVKLQESGPGLVAPSQSLSVTCTVSGVSLPDYGVSWIRQPPRKGLEWLGVIWGSETTYYNSALKSRLTIIKDNSKSQVFLKMNSLQTDDTAIYYCAKHYYYGGSYAMDYWGQGTSVTVSSASTKGPSVFPLAPSSKSTSGGTAALGCLVKDYFPEPVTVSWNSGALTSGVHTFPAVLQSSGLYSLSSVVTVPSSSLGTQTYICNVNHKPSNTKVDKKVEPKSCGGGGSNYHLENEVARLKKL
notes: the text prints 97 & 34; also called BV CT
B2: anti-CD19 (FMC63) Fab LCC1 switch (Fab)
light: DIQMTQTTSSLSASLGDRVTISCRASQDISKYLNWYQQKPDGTVKLLIYHTSRLHSGVPSRFSGSGSGTDYSLTISNLEQEDIATYFCQQGNTLPYTFGGGTKLEIKRTVAAPSVFIFPPSDEQLKSGTASVVCLLNNFYPREAKVQWKVDNALQSGNSQESVTEQDSGGGGSNYHLENEVARLKKLGGGGSDSTYSLSSTLTLSKADYEKHKVYACEVTHQGLSSPVTKSFNRGEC
heavy: EVKLQESGPGLVAPSQSLSVTCTVSGVSLPDYGVSWIRQPPRKGLEWLGVIWGSETTYYNSALKSRLTIIKDNSKSQVFLKMNSLQTDDTAIYYCAKHYYYGGSYAMDYWGQGTSVTVSSASTKGPSVFPLAPSSKSTSGGTAALGCLVKDYFPEPVTVSWNSGALTSGVHTFPAVLQSSGLYSLSSVVTVPSSSLGTQTYICNVNHKPSNTKVDKKVEPKSC
notes: also called anti-CD19 Fab CL1-GCN4
B3: anti-CD19 (FMC63) Fab LCCT switch (Fab)
light: B1 light
heavy: B2 heavy
B4: anti-CD19 (FMC63) Fab C1BV switch (Fab)
light: B2 light
heavy: EVKLQESGPGLVAPSQSLSVTCTVSGVSLPDYGVSWIRQPPRKGLEWLGVIWGSETTYYNSALKSRLTIIKDNSKSQVFLKMNSLQTDDTAIYYCAKHYYYGGSYAMDYWGQGTSVTVSSASTKGPSVFPLAPSSNYHLENEVARLKKLSGGTAALGCLVKDYFPEPVTVSWNSGALTSGVHTFPAVLQSSGLYSLSSVVTVPSSSLGTQTYICNVNHKPSNTKVDKKVEPKSC
notes: also called BV C1
B5: anti-CD19 (FMC63) Fab HCCT switch (Fab, V domains shown)
VH: EVKLQESGPGLVAPSQSLSVTCTVSGVSLPDYGVSWIRQPPRKGLEWLGVIWGSETTYYNSALKSRLTIIKDNSKSQVFLKMNSLQTDDTAIYYCAKHYYYGGSYAMDYWGQGTSVTVSS
VL: DIQMTQTTSSLSASLGDRVTISCRASQDISKYLNWYQQKPDGTVKLLIYHTSRLHSGVPSRFSGSGSGTDYSLTISNLEQEDIATYFCQQGNTLPYTFGGGTKLEIKR
notes: also called C-terminal switch
B6: anti-CD19 (FMC63) Fab NTBV switch (Fab, V domains shown)
VH: B5 VH
VL: B5 VL
notes: also called BV NT
B7: anti-CD19 (FMC63) Fab with no grafted peptide (Fab, V domains shown)
VH: B5 VH
VL: B5 VL
notes: also called WT; wild type anti-CD19 Fab
B8: anti-CLL1 (1075.7) Fab switch C (heavy chain C terminus) (Fab, V domains shown)
VH: DIQLQESGPGLVKPSQSLSLTCSVTGYSITSAYYWNWIRQFPGNKLEWMGYISYDGRNNYNPSLKNRISITRDTSKNQFFLKLNSVTTEDTATYYCAKEGDYDVGNYYAMDYWGQGTSVTVSS
VL: ENVLTQSPAIMSASPGEKVTMTCRASSNVISSYVHWYQQRSGASPKLWIYSTSNLASGVPARFSGSGSGTSYSLTISSVEAEDAATYYCQQYSGYPLTFGAGTKLELKR
B9: anti-CLL1 (1075.7) Fab switch A (LCNT1) (Fab, V domains shown)
VH: B8 VH
VL: B8 VL
B10: anti-CLL1 (1075.7) Fab bivalent switch A + B (Fab, V domains shown)
VH: B8 VH
VL: B8 VL
B11: anti-CLL1 (1075.7) Fab switch B (HCNT3) (Fab, V domains shown)
VH: B8 VH
VL: B8 VL
B12: anti-CLL1 (1075.7) Fab switch D (light chain C terminus) (Fab)
light: ENVLTQSPAIMSASPGEKVTMTCRASSNVISSYVHWYQQRSGASPKLWIYSTSNLASGVPARFSGSGSGTSYSLTISSVEAEDAATYYCQQYSGYPLTFGAGTKLELKRAAAAPSVFIFPPSDEQLKSGTASVVCLLNNFYPREAKVQWKVDNALQSGNSQESVTEQDSKDSTYSLSSTLTLSKADYEKHKVYACEVTHQGLSSPVTKSFNRGECGGGGSNYHLENEVARLKKL
heavy: DIQLQESGPGLVKPSQSLSLTCSVTGYSITSAYYWNWIRQFPGNKLEWMGYISYDGRNNYNPSLKNRISITRDTSKNQFFLKLNSVTTEDTATYYCAKEGDYDVGNYYAMDYWGQGTSVTVSSARTKGPSVFPLAPSSKSTSGGTAALGCLVKDYFPEPVTVSWNSGALTSGVHTFPAVLQSSGLYSLSSVVTVPSSSLGTQTYICNVNHKPSNTKVDKKVEPKSC
B13: anti-CLL1 (1075.7) Fab bivalent switch C + D (Fab)
light: B12 light
heavy: DIQLQESGPGLVKPSQSLSLTCSVTGYSITSAYYWNWIRQFPGNKLEWMGYISYDGRNNYNPSLKNRISITRDTSKNQFFLKLNSVTTEDTATYYCAKEGDYDVGNYYAMDYWGQGTSVTVSSARTKGPSVFPLAPSSKSTSGGTAALGCLVKDYFPEPVTVSWNSGALTSGVHTFPAVLQSSGLYSLSSVVTVPSSSLGTQTYICNVNHKPSNTKVDKKVEPKSCGGGGSNYHLENEVARLKKL
B14: Peptide 4: AAALENEVARLKKL (peptide)
peptide: AAALENEVARLKKL
B15: Peptide 6: NYHLENEVARLKKA (peptide)
peptide: NYHLENEVARLKKA
B16: Peptide 7: NYHLENEVARLKAA (peptide)
peptide: NYHLENEVARLKAA
B17: Peptide 5: AAAAENEVARLKKL (peptide)
peptide: AAAAENEVARLKKL
B18: Peptide 8: NYHLENEVARLAAA (peptide)
peptide: NYHLENEVARLAAA

The first assay has as its target T3, anti-GCN4 (52SR4 scFv) sCAR with CD8 hinge.
T3 construct: 273 is the protein without leader; also called sCAR (long); CD8 sCAR
Description: flow cytometry on CD8 sCAR-T cells, switch 30 min at 4 C, detected with PE-conjugated goat anti-human kappa chain antibody, MFI.
Description: Cells were washed two times and analyzed using the Accuri flow cytometer (BD).
Molecule B1 returned an EC50 of 360 pM.
With B2, a half-maximal response (EC50) required 4600 pM.
On to B3, for which a half-maximal response (EC50) required 4600 pM.
On the same count and under the same terms, in the case of B4 it was 620 pM.
The molecule B5 displayed an EC50 of 11700 pM.
Molecule B6 registered an EC50 of 690 pM.
Consider B7, for which the binding result was “no binding (tested: 10^2 nM)”.

The target in the next assay is T1, CLL1. The assay is described as follows: cell-based or functional assay.
For the molecule B8, the “EC50 of cytotoxicity, long hinge CAR” value amounted to 3.3 pM.
The same measure, in the same setting: the value for B9 was 4.1 pM.
In the case of B10, the “EC50 of cytotoxicity, long hinge CAR” value was 0.6 pM.
Same read-out and setting: the value for B11 was 1.3 pM.
Still for that read-out and setting: in the case of B12 it was 2.2 pM; in that of B13, 3.1 pM.

Another assay concerns the target T1, CLL1. Description: cell-based or functional assay. The source holds these as a separate data set.
Take B8: the “EC50 of cytotoxicity, short hinge CAR” value turned out to be 4.9 pM.
On the same count and under the same terms, the value for B9 was 1.5 pM.
For B10, the “EC50 of cytotoxicity, short hinge CAR” value stood at 0.5 pM.
On the same count and under the same terms, in the case of B11 it was 0.6 pM.
The same measure, in the same setting: in the case of B12 it was 5.1 pM.
For B13, the “EC50 of cytotoxicity, short hinge CAR” value turned out to be 1.2 pM.

The next assay concerns the target T2, anti-GCN4 (52SR4 scFv) sCAR with IgG4m …. The assay is described as follows: flow cytometry competition on CAR-T cells with the GCN4 CAR (SEQ ID NO. 74): 1 nM labelled GCN4 peptide (GCN4-AF488) as competitor, unlabelled peptide titrated, MFI of the labelled peptide read. (A flow cytometer gives signals particle by particle.)
Description: Un-labelled peptide binding efficiency was indirectly shown by measuring the mean fluorescence intensity (MFI) staining with the labelled peptide.
Cells were then washed twice with cold PBS to remove the free labelled peptide before being analyzed using the BD Accuri flow cytometer.
Consider B14, for which the binding result is given as “no binding (tested: 10^3 nM)”.
Still for that read-out and setting: in the case of B15 it was “binds”; in that of B16, “binds”.
Still for that read-out and setting: in the case of B17 it was “no binding (tested: 10^3 nM)”.
B18: the binding result is on record as “binds”.

The EC50 is the midpoint of the concentration-response curve. A higher EC50 goes with lower potency in that assay.

(Values after patent publication US20190169289A1 (Scripps Research, published 2019).)
